From the Human Domainome abundance scans (Beltran et al. 2025)

B1: Advillin, residues 785 to 819; numbered along this chain, O75366 (parent)
chain: LSEQDFVSVFGITRGQFAALPGWKQLQMKKEKGLF

Variants of: B1
Experiment: abundance fitness (aPCA) (normalised: wild type 0, dead -1); higher = more abundant; growth selection in yeast, the domain comes from the species named
Details: Homo sapiens

Abundance fitness, by site and new letter:
K29: P -0.497; L -0.289; T -0.043; H -0.099; W -0.075; C -0.024; G -0.266; R -0.023; I -0.218; N -0.09; M -0.187; D -0.356; V 0; Q 0.026; S -0.017; F -0.005; Y -0.221; A -0.183
E31: G -0.283; Y -0.746; I -0.421; T -0.645; M -0.453; R -0.464; C -0.443; H -0.563; A -0.173; D 0.02; V -0.367; L -0.42; K -0.271; P -0.645; W -0.709
L34: F 0.321; S 0.177; A 0.128; K -0.003; T 0.143; R -0.112; Q 0.098; W 0.019; H 0.042; G 0.147; N 0.027; D 0.284; V -0.122; M 0.029; E 0.266; C 0.355; P 0.033
Q27: K -0.064; V -0.139; M -0.293; T -0.459; H 0.108; R -0.186; P -0.589; S -0.183; L -0.297; W -0.37
F35: R 0.126; A -0.334; E 0.129; C 0.179; L 0.197; I 0.312; W -0.13; N -0.478; S 0.355; V 0.141; Q -0.071; K -1; P 0.054
K30: M 0.051; F -0.345; N 0.04; R 0.033; T -0.215; S -0.114; L -0.192; V -0.076; H -0.121; Q 0.026; C -0.321; E 0.147; I -0.266; A 0.078; P -0.453; G -0.159
K32: Q -0.122; F -0.48; E -0.175; I -0.536; L -0.047; A 0.017; G -0.156; D -0.624; W -0.365; R 0.06; T -0.179; P -0.132; M 0.072; S 0.015; N 0.122; V -0.103; Y -0.298
G33: A -0.195; L -0.305; S -0.108; V -0.525; T -0.308; Q 0.186; P 0.191; R -0.235; E -0.032; N -0.401; K -0.325; W -0.541
M28: L -0.47; P -1.19; A -0.905; R -1.14; C -0.75; S -1.14; H -0.549; I -0.619; K -0.708; T -1.03; V -1.03; G -1.13
